# Laboratory results taken from paper PMC4260256, “A novel serine hydroxymethyltransferase from Arthrobacter nicotianae: characterization and improving catalytic efficiency by rational design” (BMC Biotechnology, 2014).
# System: NC(C(=O)O)C(O)c1ccccc1
# Experiment: purified protein
# Settings: pH 7.8; 40.0 °C
substance,measurement,value
AnSHMT (Glutamicibacter nicotianae),Km,57.86 ± 0.07 mM
same,kcat/Km,27.7 M⁻¹ s⁻¹
